This experiment deals with PfCoronin^R100K/E107V-smHA (P. falciparum (Pikine isolate, SenP019.04)). Kind of experiment: affinity purification with mass spectrometry.

Substance “PfActin (from UniProt Q8I4X0 1-376) (natural protein)” registered a fold reduction of normalised abundance against PfCoronin^WT-smHA of 3 fold.

The record behind these values is paper doi:10.1101/2023.12.22.572193.
